As a reminder, the koff is a measure of how fast the partners let go of each other. Lower therefore signals slow dissociation.

Positions count from the first letter of the chain named.

koff data for six molecules are collected here from paper PMC9340783 (2022).

First the molecules themselves.
B1: hab019e2 (antibody, V domains shown)
VH: QVQLVESGGGVVQPGRSLRLSCAASGFTFSSYGMHWVRQAPGKGLEWVAVIWYAGSRKFYADSVEGRFTISRDNSKNTLYLQMNSLRAEDTAVYYCARGGSLEGGFFYYGMDVWGQGTTVTVSS
VL: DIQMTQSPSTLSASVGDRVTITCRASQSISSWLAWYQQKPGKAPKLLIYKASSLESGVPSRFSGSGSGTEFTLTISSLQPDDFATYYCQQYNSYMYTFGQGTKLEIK
B2: hab019 (antibody, V domains shown)
VH: B1 VH with N84S, L86V, A88P, E103D
VL: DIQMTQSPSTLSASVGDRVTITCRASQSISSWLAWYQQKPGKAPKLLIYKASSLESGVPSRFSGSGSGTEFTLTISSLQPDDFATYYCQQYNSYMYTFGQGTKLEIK
B3: hab076 (antibody, V domains shown)
VH: QVQLVESGGGVVQPGRSLRLSCAASGFTFSSYGMHWVRQAPGKGLEWVAVIWYETSNKYYADSVKGRFTISRDNSKNTLYLQMNSLRAEDTAVYYCARYGASSGWYWYFDLWGRGTLVTVSS
VL: DIQLTQSPSFLSASVGDRVTITCRASQGISSYLAWYQQKPGKAPKLLIYAASTLQSGVPSRFSGSGSGTEFTLTISSLQPEDFATYCCQQLNSYPFTFGQGTKLEIK
B4: hab064 (antibody, V domains shown)
VH: B3 VH with S85N, A101G, S102N
VL: B3 VL with Y32F, K42T
B5: hab070 (antibody, V domains shown)
VH: B3 VH with Y59F, A61V
VL: B3 VL with Y32F
B6: hab070e1 (antibody, V domains shown)
VH: B3 VH with Y59F, A61V
VL: B3 VL with Y32F, C87Y

The target of this assay is hGITR ECD hFc (human, UniProt Q9Y5U5 26-161, Thr45Ala). The assay is described as follows: SPR. In general terms: Surface plasmon resonance follows binding to a sensor surface in real time, without labels.
hGITR ECD hFc, sequence (Q9Y5U5 26-161 T45A): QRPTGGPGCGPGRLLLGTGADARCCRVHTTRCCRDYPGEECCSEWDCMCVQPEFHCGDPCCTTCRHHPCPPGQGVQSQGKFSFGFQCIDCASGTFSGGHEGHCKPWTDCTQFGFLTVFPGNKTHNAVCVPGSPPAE
B1: the koff was found to be 0.00023 s⁻¹.

B2 gave a koff of 0.000205 s⁻¹.

B3 came in with an off-rate (koff) of 0.000684 s⁻¹.

For the molecule B4, the koff amounted to 0.000315 s⁻¹.

As to B5, the koff is 0.000185 s⁻¹.

In the case of B6, the off-rate (koff) was determined as 0.000381 s⁻¹.
